The target of series [1] is TDP-43 M323K (LCDmut) M323K (mouse) (UniProt Q921F2). Briefly: EMSA. Further details: unit not given beside the values. As to conditions: 5% acrylamide gel, protein 0.25-2 ug with 32P RNA in unspecified binding buffer, salt, pH and temperature not given. (Mobility shift assays separate free from complexed probe on a gel.)
The target of series [2] is TDP-43 WT (mouse) (UniProt Q921F2). Briefly: EMSA. More on the design: unit not given beside the values. As to conditions: 5% acrylamide gel, protein 0.25-2 ug with 32P RNA in unspecified binding buffer, salt, pH and temperature not given.

Consider UGUGUGUGUGUG [(UG)6 RNA], for which the Kd amounted to 32200 in series [1] and 27600 in series [2].

Values taken from PMC5983119.
